# Data reported in patent US20250197467A1.
# Like-named read-outs stand apart in the source and are kept apart here.
# Tests used:
# [1] = biological target: Composition E, MMP9-treated (Homo sapiens (Human)) (UniProt Q14116)
# [2] = biological target: Composition S (Homo sapiens (Human)) (UniProt Q14116)
# [3] = biological target: C086 (SEQ ID NO: 30) (Homo sapiens (Human)) (UniProt Q14116); assay: cell-based or functional assay
# [4] = biological target: C143 (human) (UniProt Q14116); assay: cell-based or functional assay
# [5] = biological target: C144 (human) (UniProt Q14116); assay: cell-based or functional assay
# [6] = biological target: C145 (human) (UniProt Q14116); assay: cell-based or functional assay
# Chain of C145 (human) (Q14116 other isoform, or with tags, fused parts or gaps): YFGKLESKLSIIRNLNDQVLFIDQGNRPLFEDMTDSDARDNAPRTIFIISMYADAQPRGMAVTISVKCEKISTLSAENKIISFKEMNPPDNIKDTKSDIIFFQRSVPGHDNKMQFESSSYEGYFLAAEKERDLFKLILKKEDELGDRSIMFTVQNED
# [7] = biological target: C146 (Homo sapiens (Human)) (UniProt Q14116); assay: cell-based or functional assay
# Chain of C146 (Homo sapiens (Human)) (Q14116 other isoform, or with tags, fused parts or gaps): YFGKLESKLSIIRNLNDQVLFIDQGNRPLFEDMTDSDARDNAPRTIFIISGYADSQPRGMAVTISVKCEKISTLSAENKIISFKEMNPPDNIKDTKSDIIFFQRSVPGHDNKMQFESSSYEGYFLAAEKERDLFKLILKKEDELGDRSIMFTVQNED
# [8] = biological target: C147 (human) (UniProt Q14116); assay: cell-based or functional assay
# Chain of C147 (human) (Q14116 other isoform, or with tags, fused parts or gaps): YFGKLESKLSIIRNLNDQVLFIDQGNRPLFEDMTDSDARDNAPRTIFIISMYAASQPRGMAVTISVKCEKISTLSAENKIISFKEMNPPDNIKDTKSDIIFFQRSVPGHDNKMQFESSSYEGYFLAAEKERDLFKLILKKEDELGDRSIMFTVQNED
# [9] = biological target: C148 (human) (UniProt Q14116); assay: cell-based or functional assay
# [10] = biological target: C149 (human) (UniProt Q14116); assay: cell-based or functional assay
# [11] = biological target: C150 (human) (UniProt Q14116); assay: cell-based or functional assay
# [12] = biological target: C151 (human) (UniProt Q14116); assay: cell-based or functional assay
# [13] = biological target: C152 (human) (UniProt Q14116); assay: cell-based or functional assay
# [14] = biological target: C153 (human) (UniProt Q14116); assay: cell-based or functional assay
# Chain of C153 (human) (Q14116 other isoform, or with tags, fused parts or gaps): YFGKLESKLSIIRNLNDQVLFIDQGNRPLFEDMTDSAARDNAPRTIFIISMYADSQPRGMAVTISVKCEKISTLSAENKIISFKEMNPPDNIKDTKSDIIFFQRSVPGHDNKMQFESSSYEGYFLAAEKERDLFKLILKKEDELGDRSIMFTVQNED
# [15] = biological target: C154 (human) (UniProt Q14116); assay: cell-based or functional assay
# [16] = biological target: C155 (human) (UniProt Q14116); assay: cell-based or functional assay
# [17] = biological target: C156 (human) (UniProt Q14116); assay: cell-based or functional assay
# Chain of C156 (human) (Q14116 other isoform, or with tags, fused parts or gaps): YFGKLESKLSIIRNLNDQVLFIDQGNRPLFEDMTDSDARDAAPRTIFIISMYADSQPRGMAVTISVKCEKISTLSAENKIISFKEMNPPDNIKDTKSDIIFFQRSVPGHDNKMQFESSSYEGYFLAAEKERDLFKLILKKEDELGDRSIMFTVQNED
# [18] = biological target: C157 (human) (UniProt Q14116); assay: cell-based or functional assay
# Chain of C157 (human) (Q14116 other isoform, or with tags, fused parts or gaps): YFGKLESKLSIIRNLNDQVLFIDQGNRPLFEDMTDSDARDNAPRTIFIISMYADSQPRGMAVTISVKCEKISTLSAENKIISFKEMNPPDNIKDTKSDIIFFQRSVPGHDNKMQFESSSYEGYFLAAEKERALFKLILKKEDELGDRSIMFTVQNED
# [19] = biological target: C158 (human) (UniProt Q14116); assay: cell-based or functional assay
# [20] = biological target: C159 (human) (UniProt Q14116); assay: cell-based or functional assay
# Chain of C159 (human) (Q14116 other isoform, or with tags, fused parts or gaps): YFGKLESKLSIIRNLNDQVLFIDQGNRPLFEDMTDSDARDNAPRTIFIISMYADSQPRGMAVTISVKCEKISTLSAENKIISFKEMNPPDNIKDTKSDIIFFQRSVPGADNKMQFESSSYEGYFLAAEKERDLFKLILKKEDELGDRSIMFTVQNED
# [21] = biological target: C160 (human) (UniProt Q14116); assay: cell-based or functional assay
# Chain of C160 (human) (Q14116 other isoform, or with tags, fused parts or gaps): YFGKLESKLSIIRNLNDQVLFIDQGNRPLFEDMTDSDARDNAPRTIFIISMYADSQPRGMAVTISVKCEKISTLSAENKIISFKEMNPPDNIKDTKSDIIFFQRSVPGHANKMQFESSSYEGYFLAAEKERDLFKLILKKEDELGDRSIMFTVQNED
# [22] = biological target: C161 (human) (UniProt Q14116); assay: cell-based or functional assay
# [23] = biological target: C162 (human) (UniProt Q14116); assay: cell-based or functional assay
# [24] = biological target: C163 (human) (UniProt Q14116); assay: cell-based or functional assay
# Chain of C163 (human) (Q14116 other isoform, or with tags, fused parts or gaps): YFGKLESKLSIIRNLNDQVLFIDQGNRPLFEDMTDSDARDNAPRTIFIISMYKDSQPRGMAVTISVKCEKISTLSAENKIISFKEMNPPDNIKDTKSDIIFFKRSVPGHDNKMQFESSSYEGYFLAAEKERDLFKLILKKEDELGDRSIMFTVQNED
# [25] = biological target: C164 (human) (UniProt Q14116); assay: cell-based or functional assay
# [26] = biological target: C165 (human) (UniProt Q14116); assay: cell-based or functional assay
# [27] = biological target: C166 (human) (UniProt Q14116); assay: cell-based or functional assay
# [28] = biological target: C167 (human) (UniProt Q14116); assay: cell-based or functional assay
# Chain of C167 (human) (Q14116 other isoform, or with tags, fused parts or gaps): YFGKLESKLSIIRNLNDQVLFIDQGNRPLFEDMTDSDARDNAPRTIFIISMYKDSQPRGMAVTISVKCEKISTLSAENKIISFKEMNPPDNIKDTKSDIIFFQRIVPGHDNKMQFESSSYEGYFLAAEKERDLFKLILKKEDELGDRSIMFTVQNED
# [29] = biological target: C168 (human) (UniProt Q14116); assay: cell-based or functional assay
# Chain of C168 (human) (Q14116 other isoform, or with tags, fused parts or gaps): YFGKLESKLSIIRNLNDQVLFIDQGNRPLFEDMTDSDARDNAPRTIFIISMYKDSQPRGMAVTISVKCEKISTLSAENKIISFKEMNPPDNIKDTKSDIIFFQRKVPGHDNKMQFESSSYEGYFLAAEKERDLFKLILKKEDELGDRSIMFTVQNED
# [30] = biological target: C190 (Homo sapiens (Human)) (UniProt Q14116); assay: cell-based or functional assay
# Chain of C190 (Homo sapiens (Human)) (Q14116 other isoform, or with tags, fused parts or gaps): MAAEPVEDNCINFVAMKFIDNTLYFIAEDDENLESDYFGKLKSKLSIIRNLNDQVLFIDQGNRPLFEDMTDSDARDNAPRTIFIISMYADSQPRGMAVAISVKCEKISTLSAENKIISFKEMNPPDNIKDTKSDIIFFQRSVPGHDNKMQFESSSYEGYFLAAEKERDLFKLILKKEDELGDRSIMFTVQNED
# [31] = biological target: IL-18 WT (SEQ ID NO: 1) (human) (UniProt Q14116); assay: cell-based or functional assay
# Chain of IL-18 WT (SEQ ID NO: 1) (human) (Q14116 37-193): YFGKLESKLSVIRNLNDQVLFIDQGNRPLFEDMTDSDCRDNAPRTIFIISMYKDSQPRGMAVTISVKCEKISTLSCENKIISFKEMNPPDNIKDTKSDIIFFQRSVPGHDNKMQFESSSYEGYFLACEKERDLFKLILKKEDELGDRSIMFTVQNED
# [32] = biological target: SEQ ID NO 34 (Homo sapiens (Human)) (UniProt Q14116); assay: cell-based or functional assay
# Chain of SEQ ID NO 34 (Homo sapiens (Human)) (Q14116 other isoform, or with tags, fused parts or gaps): as the sequence (Q14116 37-193) above, with E6K, K53A, S55A counted along it
# [33] = biological target: SEQ ID NO 35 (Homo sapiens (Human)) (UniProt Q14116); assay: cell-based or functional assay
# [34] = biological target: SEQ ID NO 36 (Homo sapiens (Human)) (UniProt Q14116); assay: cell-based or functional assay
# [35] = biological target: SEQ ID NO 37 (Homo sapiens (Human)) (UniProt Q14116); assay: cell-based or functional assay
# Chain of SEQ ID NO 37 (Homo sapiens (Human)) (Q14116 37-193 S91A): as the sequence (Q14116 37-193) above, with S55A counted along it
# [36] = biological target: SEQ ID NO 38 (Homo sapiens (Human)) (UniProt Q14116); assay: cell-based or functional assay
# [37] = biological target: SEQ ID NO 39 (Homo sapiens (Human)) (UniProt Q14116); assay: cell-based or functional assay
# [38] = biological target: SEQ ID NO 4 (Homo sapiens (Human)) (UniProt Q14116); assay: cell-based or functional assay
# Chain of SEQ ID NO 4 (Homo sapiens (Human)) (Q14116 other isoform, or with tags, fused parts or gaps): as the sequence (Q14116 37-193) above, with E6K, C38A, K53A, C68A, M86C counted along it
# [39] = biological target: SEQ ID NO 40 (Homo sapiens (Human)) (UniProt Q14116); assay: cell-based or functional assay
# [40] = biological target: SEQ ID NO 41 (Homo sapiens (Human)) (UniProt Q14116); assay: cell-based or functional assay
# Chain of SEQ ID NO 41 (Homo sapiens (Human)) (Q14116 37-193 K89A/S91A): as the sequence (Q14116 37-193) above, with K53A, S55A counted along it
# [41] = biological target: SEQ ID NO 42 (Homo sapiens (Human)) (UniProt Q14116); assay: cell-based or functional assay
# [42] = biological target: SEQ ID NO 43 (Homo sapiens (Human)) (UniProt Q14116); assay: cell-based or functional assay
# [43] = biological target: SEQ ID NO 46 (Homo sapiens (Human)) (UniProt Q14116); assay: cell-based or functional assay
# Chain of SEQ ID NO 46 (Homo sapiens (Human)) (Q14116 other isoform, or with tags, fused parts or gaps): as the sequence (Q14116 37-193) above, with E6K, M51G, K53A, S55A counted along it
# [44] = biological target: SEQ ID NO 47 (Homo sapiens (Human)) (UniProt Q14116); assay: cell-based or functional assay
# Chain of SEQ ID NO 47 (Homo sapiens (Human)) (Q14116 other isoform, or with tags, fused parts or gaps): as the sequence (Q14116 37-193) above, with C38S, C68S, C76S, C127S counted along it
# [45] = biological target: SEQ ID NO 48 (Homo sapiens (Human)) (UniProt Q14116); assay: cell-based or functional assay
# Chain of SEQ ID NO 48 (Homo sapiens (Human)) (Q14116 other isoform, or with tags, fused parts or gaps): as the sequence (Q14116 37-193) above, with C38S, C68S, K70C, C76S, C127S counted along it
# [46] = biological target: SEQ ID NO 5 (Homo sapiens (Human)) (UniProt Q14116); assay: cell-based or functional assay
# [47] = biological target: SEQ ID NO 50 (Homo sapiens (Human)) (UniProt Q14116); assay: cell-based or functional assay
# [48] = biological target: SEQ ID NO 51 (Homo sapiens (Human)) (UniProt Q14116); assay: cell-based or functional assay
# Chain of SEQ ID NO 51 (Homo sapiens (Human)) (Q14116 37-193 T99A): as the sequence (Q14116 37-193) above, with T63A counted along it
# [49] = biological target: SEQ ID NO 52 (Homo sapiens (Human)) (UniProt Q14116); assay: cell-based or functional assay
# Chain of SEQ ID NO 52 (Homo sapiens (Human)) (Q14116 other isoform, or with tags, fused parts or gaps): as the sequence (Q14116 37-193) above, with E6K, T63A counted along it
# [50] = biological target: SEQ ID NO 53 (Homo sapiens (Human)) (UniProt Q14116); assay: cell-based or functional assay
# [51] = biological target: SEQ ID NO 54 (Homo sapiens (Human)) (UniProt Q14116); assay: cell-based or functional assay
# [52] = biological target: SEQ ID NO 55 (Homo sapiens (Human)) (UniProt Q14116); assay: cell-based or functional assay
# [53] = biological target: SEQ ID NO 57 (Homo sapiens (Human)) (UniProt Q14116); assay: cell-based or functional assay
# Chain of SEQ ID NO 57 (Homo sapiens (Human)) (Q14116 other isoform, or with tags, fused parts or gaps): as the sequence (Q14116 37-193) above, with E6K, C38S, K53A counted along it
# [54] = biological target: SEQ ID NO 59 (Homo sapiens (Human)) (UniProt Q14116); assay: cell-based or functional assay
# [55] = biological target: SEQ ID NO 6 (Homo sapiens (Human)) (UniProt Q14116); assay: cell-based or functional assay
# [56] = biological target: SEQ ID NO 60 (Homo sapiens (Human)) (UniProt Q14116); assay: cell-based or functional assay
# [57] = biological target: SEQ ID NO 62 (Homo sapiens (Human)) (UniProt Q14116); assay: cell-based or functional assay
# Chain of SEQ ID NO 62 (Homo sapiens (Human)) (Q14116 other isoform, or with tags, fused parts or gaps): as the sequence (Q14116 37-193) above, with E6K, C38A, K53A, C127A counted along it
# [58] = biological target: SEQ ID NO 9 (Homo sapiens (Human)) (UniProt Q14116); assay: cell-based or functional assay
# [59] = biological target: His-tagged human IL-18BP (human) (UniProt O95998); assay: AlphaLISA of free IL-18BP
# Chain of His-tagged human IL-18BP (human) (O95998 31-194): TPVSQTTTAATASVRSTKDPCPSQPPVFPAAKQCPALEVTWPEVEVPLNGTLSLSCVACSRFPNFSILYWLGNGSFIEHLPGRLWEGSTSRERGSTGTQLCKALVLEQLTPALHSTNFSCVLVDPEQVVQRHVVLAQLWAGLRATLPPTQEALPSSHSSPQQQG
# [60] = biological target: His-tagged human IL-18BP (human) (UniProt O95998); assay: AlphaLISA of free IL-18BP; remark: listed apart in the source
# [61] = biological target: His-tagged human IL-18BP (human) (UniProt O95998); assay: AlphaLISA of free IL-18BP (analyte titrated in assay buffer against 5 ng/ml His-tagged human IL-18BP; falling signal = IL-18BP bound)
# Chain of Fc-fused human IL-18 binding protein isoform a (IL-18BPa) (O95998 31-194 limits assumed): as the sequence (O95998 31-194) above
# Chain of IL-18 WT (SEQ ID NO: 1) (Q14116 37-193): as the sequence (Q14116 37-193) above
# Chain of C086 (SEQ ID NO: 30) (Homo sapiens (Human)) (Q14116 other isoform, or with tags, fused parts or gaps): as the sequence (Q14116 37-193) above, with E6K, V11I, C38A, K53A, T63A, C76A, C127A counted along it
substance,measurement,setting,value
Fc-fused human IL-18 binding protein isoform a (IL-18BPa) (from UniProt O95998 31-194) (Fc fusion),"IC50 (read off the curve), PD-1 positive NK-92 cells",[1],8 nM
same,"IC50 (read off the curve), PD-1 negative NK-92 cells",[2],8 nM
same,IL-18BP-mediated IFNγ inhibition NK-92 assay IC50,[3],22.5 nM
same,"IC50 (IL-18BP inhibition of IFNγ, NK92)",[4],1.62 nM
same,"IC50 (IL-18BP inhibition of IFNγ, NK92)",[5],7.52 nM
same,"IC50 (IL-18BP inhibition of IFNγ, NK92)",[6],10.2 nM
same,"IC50 (IL-18BP inhibition of IFNγ, NK92)",[7],733 nM
same,"IC50 (IL-18BP inhibition of IFNγ, NK92)",[8],47.6 nM
same,"IC50 (IL-18BP inhibition of IFNγ, NK92)",[9],5.05 nM
same,"IC50 (IL-18BP inhibition of IFNγ, NK92)",[10],1.17 nM
same,"IC50 (IL-18BP inhibition of IFNγ, NK92)",[11],21.3 nM
same,"IC50 (IL-18BP inhibition of IFNγ, NK92)",[12],3.62 nM
same,"IC50 (IL-18BP inhibition of IFNγ, NK92)",[13],7.85 nM
same,"IC50 (IL-18BP inhibition of IFNγ, NK92)",[14],2.22 nM
same,"IC50 (IL-18BP inhibition of IFNγ, NK92)",[15],3.71 nM
same,"IC50 (IL-18BP inhibition of IFNγ, NK92)",[16],3.23 nM
same,"IC50 (IL-18BP inhibition of IFNγ, NK92)",[17],0.681 nM
same,"IC50 (IL-18BP inhibition of IFNγ, NK92)",[18],6.08 nM
same,"IC50 (IL-18BP inhibition of IFNγ, NK92)",[19],3.98 nM
same,"IC50 (IL-18BP inhibition of IFNγ, NK92)",[20],1.81 nM
same,"IC50 (IL-18BP inhibition of IFNγ, NK92)",[21],3.18 nM
same,"IC50 (IL-18BP inhibition of IFNγ, NK92)",[22],1.07 nM
same,"IC50 (IL-18BP inhibition of IFNγ, NK92)",[23],7.29 nM
same,"IC50 (IL-18BP inhibition of IFNγ, NK92)",[24],0.823 nM
same,"IC50 (IL-18BP inhibition of IFNγ, NK92)",[25],0.456 nM
same,"IC50 (IL-18BP inhibition of IFNγ, NK92)",[26],0.885 nM
same,"IC50 (IL-18BP inhibition of IFNγ, NK92)",[27],0.44 nM
same,"IC50 (IL-18BP inhibition of IFNγ, NK92)",[28],0.809 nM
same,"IC50 (IL-18BP inhibition of IFNγ, NK92)",[29],0.176 nM
same,IL-18BP-mediated IFNγ inhibition NK-92 assay IC50,[30],4.33 nM
same,"IC50 (IL-18BP inhibition of IFNγ, NK92)",[31],1.47 nM
same,IL-18BP-mediated IFNγ inhibition NK-92 assay IC50,[31],0.403 nM
same,"IC50 (IL-18BP inhibition of IFNγ, NK92)",[32],229 nM
same,"IC50 (IL-18BP inhibition of IFNγ, NK92)",[33],> 55 nM
same,"IC50 (IL-18BP inhibition of IFNγ, NK92)",[34],27.3 nM
same,"IC50 (IL-18BP inhibition of IFNγ, NK92)",[35],4.46 nM
same,"IC50 (IL-18BP inhibition of IFNγ, NK92)",[36],7.79 nM
same,"IC50 (IL-18BP inhibition of IFNγ, NK92)",[37],> 703 nM
same,"IC50 (IL-18BP inhibition of IFNγ, NK92)",[38],396 nM
same,"IC50 (IL-18BP inhibition of IFNγ, NK92)",[39],15 nM
same,"IC50 (IL-18BP inhibition of IFNγ, NK92)",[40],37.3 nM
same,"IC50 (IL-18BP inhibition of IFNγ, NK92)",[41],1060 nM
same,"IC50 (IL-18BP inhibition of IFNγ, NK92)",[42],27.8 nM
same,"IC50 (IL-18BP inhibition of IFNγ, NK92)",[43],0.189 nM
same,"IC50 (IL-18BP inhibition of IFNγ, NK92)",[44],0.444 nM
same,"IC50 (IL-18BP inhibition of IFNγ, NK92)",[45],0.114 nM
same,"IC50 (IL-18BP inhibition of IFNγ, NK92)",[46],62.4 nM
same,"IC50 (IL-18BP inhibition of IFNγ, NK92)",[47],> 1000 nM
same,"IC50 (IL-18BP inhibition of IFNγ, NK92)",[48],0.239 nM
same,"IC50 (IL-18BP inhibition of IFNγ, NK92)",[49],47.1 nM
same,"IC50 (IL-18BP inhibition of IFNγ, NK92)",[50],18.2 nM
same,"IC50 (IL-18BP inhibition of IFNγ, NK92)",[51],23.5 nM
same,"IC50 (IL-18BP inhibition of IFNγ, NK92)",[52],> 1000 nM
same,"IC50 (IL-18BP inhibition of IFNγ, NK92)",[53],146 nM
same,"IC50 (IL-18BP inhibition of IFNγ, NK92)",[54],654 nM
same,"IC50 (IL-18BP inhibition of IFNγ, NK92)",[55],5.85 nM
same,"IC50 (IL-18BP inhibition of IFNγ, NK92)",[56],780 nM
same,"IC50 (IL-18BP inhibition of IFNγ, NK92)",[57],284 nM
same,"IC50 (IL-18BP inhibition of IFNγ, NK92)",[58],961 nM
IL-18 WT (SEQ ID NO: 1) (from UniProt Q14116 37-193) (ligand),Kd,[59],0.403 nM
same,Kd,[60],0.67 nM
same,IC50 (read off the curve),[61],0.08 nM
